Numbering of substitutions follows the chain as printed. Names may count otherwise. Read-outs that look alike come from different tables or passages of the source.

Assay [1] addresses GMPCPP-stabilized microtubules of porcine brain tubulin (porcine) (UniProt P02550).
Assay [2] addresses T1, katanin MEI-1/MEI-2 (wild type) (C. elegans) (UniProt P34808).
T1 sequence 1: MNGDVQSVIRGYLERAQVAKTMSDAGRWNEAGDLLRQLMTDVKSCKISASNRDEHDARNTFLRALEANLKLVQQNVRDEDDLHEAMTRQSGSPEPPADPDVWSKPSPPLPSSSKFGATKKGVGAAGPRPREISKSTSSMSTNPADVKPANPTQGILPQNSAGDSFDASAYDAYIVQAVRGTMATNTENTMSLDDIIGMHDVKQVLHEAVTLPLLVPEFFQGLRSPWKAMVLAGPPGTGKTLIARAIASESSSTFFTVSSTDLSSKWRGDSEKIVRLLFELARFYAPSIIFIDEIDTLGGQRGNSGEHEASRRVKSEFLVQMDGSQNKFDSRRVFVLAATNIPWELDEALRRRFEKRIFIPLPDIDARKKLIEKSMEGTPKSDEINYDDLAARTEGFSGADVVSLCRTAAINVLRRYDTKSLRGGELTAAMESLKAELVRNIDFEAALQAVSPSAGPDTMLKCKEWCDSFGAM
T1 sequence 2: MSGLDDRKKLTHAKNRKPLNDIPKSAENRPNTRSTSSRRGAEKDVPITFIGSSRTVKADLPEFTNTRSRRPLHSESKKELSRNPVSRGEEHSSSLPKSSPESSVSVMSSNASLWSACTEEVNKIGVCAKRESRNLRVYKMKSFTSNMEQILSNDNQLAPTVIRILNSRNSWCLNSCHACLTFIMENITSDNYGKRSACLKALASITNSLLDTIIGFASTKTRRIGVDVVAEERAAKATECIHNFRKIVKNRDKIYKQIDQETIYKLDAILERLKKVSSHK

Assay [3] addresses T1, katanin MEI-1/MEI-2 (wild type) (C. elegans). The source holds these as a separate data set.
The target of assay [4] is katanin MEI-1/MEI-2 mutant Glu308 to alanine (C. elegans) (UniProt P34808).
For assay [5], the target named is taxol-stabilized brain microtubules (UniProt P02550).
The target in assay [6] is katanin MEI-1/MEI-2 mutant W266A (C. elegans) (UniProt P34808).
For assay [7], the target named is katanin MEI-1/MEI-2 mutant R267A (C. elegans) (UniProt P34808).
The target of assay [8] is taxol-stabilized brain microtubules (UniProt P02550). This is another data set of the same source.
Assay [9] deals with katanin MEI-1/MEI-2 mutant K265A (C. elegans) (UniProt P34808).
The target of assay [10] is GMPCPP-stabilized microtubules of porcine brain tubulin (porcine) (UniProt P02550). The source holds these as a separate data set.

For the molecule “Drosophila melanogaster spastin mutated in the N-terminal positively-charged cluster Arg110Lys111Lys117Arg118 (enzyme)”, the microtubule severing activity of spastin at 20 nM, reduction against wild type in assay [1] was found to be 50%. In turn, βV-tail (peptide) returned a stimulation of katanin ATPase by the tail, weaker than βI and βIVb by in assay [2] of 30%. As for “Drosophila melanogaster spastin with Arg159Arg160Arg166Arg172Arg174 mutated to alanine (enzyme)”, the microtubule severing activity of spastin at 20 nM, reduction against wild type in [1] was 70%.

B1: βIVb-tubulin tail peptide (peptide)
peptide: DATAEEEGEFEEEAEEEVA
On to B1, for which, in [3], the maximal stimulation of katanin ATPase by the tail peptide (2 to 600 μM) came to 3.5 fold.

B2: βI-tubulin tail peptide (peptide)
peptide: DATAEEEEDFGEEAEEEA
With B2, the maximal stimulation of katanin ATPase by the tail peptide (2 to 600 μM) in assay [3] was determined as 3.5 fold.

B3: α-tubulin tail peptide (peptide)
peptide: VDSVEGEGEEEGEEY
Take B3: the maximal stimulation of katanin ATPase by the tail peptide (2 to 600 μM) in [3] was 2.2 fold.

B4: katanin MEI-1/MEI-2 mutant Glu308 to alanine (complex)
chain 1: T1 sequence 1 with E308A
chain 2: T1 sequence 2
Molecule B4 yielded a basal ATPase, reduction against wild type in assay [4] of 87%.

B5: katanin MEI-1/MEI-2 mutant W266A (complex)
chain 1: T1 sequence 1 with W266A
chain 2: T1 sequence 2
In assay [5], B5 yielded a microtubule stimulated ATPase, reduced (so in the source) of 64%. The same molecule displayed a basal ATPase, reduced (so in the source) in assay [6] of 59%.

B6: katanin MEI-1/MEI-2 mutant R267A (complex)
chain 1: T1 sequence 1 with R267A
chain 2: T1 sequence 2
With B6, the basal ATPase, reduction against wild type in assay [7] was determined as 51%. Further, the microtubule stimulated ATPase, reduction against wild type in assay [5] was 60%.

B7: katanin MEI-1/MEI-2 mutant K119K120R128R130K134AAAAA (complex)
chain 1: T1 sequence 1 with K119A, K120A, R128A, R130A, K134A
chain 2: T1 sequence 2
As to B7, the microtubule stimulated ATPase, reduction against wild type in assay [8] was 50%.

B8: katanin MEI-1/MEI-2 mutant K265A (complex)
chain 1: T1 sequence 1 with K265A
chain 2: T1 sequence 2
In the case of B8, the microtubule stimulated ATPase, reduced (so in the source) in assay [5] came out at 58%. The molecule further yielded a basal ATPase, reduced (so in the source) in assay [9] of 42%.

B9: katanin MEI-1/MEI-2 Arg128Arg130Lys134Ala triple mutant (complex)
chain 1: T1 sequence 1 with R128A, R130A, K134A
chain 2: T1 sequence 2
For the molecule B9, in assay [10], the microtubule severing activity, reduction against wild type is 32% and the tubulin extraction (nanodamage) activity, reduction against wild type is 51%.

The values are drawn from paper PMC7060837.
